± gives the uncertainty stated by the source.
Test: self-splicing fitness, log relative to wild type (ln ratio); higher = more splicing; Tetrahymena group I intron in knt gene, E. coli kanamycin selection, DiMSum; sequences stand for … in CUCUCU…GGAGGGAAAAGUUAUCAGGCAUGCACCUGGUAGCUAGUCUUUAAACCAAUAGAUUGCAUCGGUUUAAAAGGCAAGACCGUCAAAUUGCGGGAAAGGGGUCAACAGCCGUUCAGUACCAAGUCUCAGGGGAAACUUUGAGAUGGCCUUGCAAAGGGUAUGGUAAUAAGCUGACGGACAUGGUCCUAACCACGCAGCCAAGUCCUAAGUCAACAGAUCUUCUGUUGAUAUGGAUGCAGUUCACAGACUAAAUGUCGGUCGGGGAAGAUGUAUUCUUCUCAUAAGAUAUAGUCGGACCUCUCCUUAAUGGGAGCUAGCGGAUGAAGUGAUGCAACACUGGAGCCGCUGGGAACUAAUUUGUAUGCGAAAGUAUAUUGAUUAGUUUUGGAGUACUCGUGGUCG
Procedure, shortened: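 Pooled colonies went to amplicon sequencing on an Illumina HiSeq 2500 after six replicate transformations. The plates were LB agar with 100 μg/mL carbenicillin, 50 μM IPTG and 0.2% rhamnose, with or without 25 μg/mL kanamycin, incubated overnight at 37°C or 30°C. The E. coli BL21(DE3) library had all eight P1ex-region intron nucleotides randomised, the intron placed in the knt kanamycin-resistance gene on pET-22b(+). DiMSum fitness is the error-weighted combination of replicate fold changes, kanamycin against none, normalised to wild type.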

## ACCUAGCAAUAUUACGUGCG
30 °C
  self-splicing fitness (ln): -1.5 ± 0.069
37 °C
  self-splicing fitness (ln): -0.773 ± 0.077

## AGCCAGCAAUAUUACGGACA
30 °C
  self-splicing fitness (ln): -0.814 ± 0.1
37 °C
  self-splicing fitness (ln): -0.491 ± 0.13

## GGAGAGCAAUAUUACGCGGG
30 °C
  self-splicing fitness (ln): -2.21 ± 0.35

## AUGCAGCAAUAUUACGAUGG
30 °C
  self-splicing fitness (ln): -3.04 ± 0.21
37 °C
  self-splicing fitness (ln): -2.94 ± 0.27

## UGUCAGCAAUAUUACGAAAA
30 °C
  self-splicing fitness (ln): -1.06 ± 0.095
37 °C
  self-splicing fitness (ln): -0.75 ± 0.096

## GGUCAGCAAUAUUACGCAAG
30 °C
  self-splicing fitness (ln): -1.92 ± 0.17
37 °C
  self-splicing fitness (ln): -0.453 ± 0.16

## CCCUAGCAAUAUUACGUGCC
30 °C
  self-splicing fitness (ln): -3.52 ± 0.22
37 °C
  self-splicing fitness (ln): -2.2 ± 0.24

## AGGAAGCAAUAUUACGGCAC
30 °C
  self-splicing fitness (ln): -1.55 ± 0.14
37 °C
  self-splicing fitness (ln): -0.99 ± 0.14

## GGUUAGCAAUAUUACGUUCU
30 °C
  self-splicing fitness (ln): -0.833 ± 0.042
37 °C
  self-splicing fitness (ln): -0.236 ± 0.052

## AUAAAGCAAUAUUACGGAAG
30 °C
  self-splicing fitness (ln): -2.3 ± 0.098
37 °C
  self-splicing fitness (ln): -0.18 ± 0.11

## UAAAAGCAAUAUUACGACGC
30 °C
  self-splicing fitness (ln): -2.67 ± 0.18
37 °C
  self-splicing fitness (ln): -0.32 ± 0.15

## UCCGAGCAAUAUUACGCCUG
30 °C
  self-splicing fitness (ln): -2.12 ± 0.36
37 °C
  self-splicing fitness (ln): -1.84 ± 0.31

## CCAUAGCAAUAUUACGAGCG
30 °C
  self-splicing fitness (ln): -0.63 ± 0.095
37 °C
  self-splicing fitness (ln): -2.73e-06 ± 0.12

## UUUAAGCAAUAUUACGGCGC
30 °C
  self-splicing fitness (ln): -1.15 ± 0.17
37 °C
  self-splicing fitness (ln): -0.784 ± 0.23

## AGAGAGCAAUAUUACGGACU
30 °C
  self-splicing fitness (ln): -0.413 ± 0.12
37 °C
  self-splicing fitness (ln): -0.495 ± 0.17

## UCACAGCAAUAUUACGUCUU
30 °C
  self-splicing fitness (ln): -1.68 ± 0.12
37 °C
  self-splicing fitness (ln): -2.4 ± 0.16

## GACUAGCAAUAUUACGCGCA
30 °C
  self-splicing fitness (ln): -0.593 ± 0.16
37 °C
  self-splicing fitness (ln): -0.286 ± 0.18

## AUCCAGCAAUAUUACGGACG
30 °C
  self-splicing fitness (ln): 0.0252 ± 0.082
37 °C
  self-splicing fitness (ln): -0.0752 ± 0.089

## UAAAAGCAAUAUUACGCGCG
30 °C
  self-splicing fitness (ln): -0.577 ± 0.087
37 °C
  self-splicing fitness (ln): 0.0302 ± 0.11

## GGUCAGCAAUAUUACGGGAA
30 °C
  self-splicing fitness (ln): -1.5 ± 0.16
37 °C
  self-splicing fitness (ln): -0.702 ± 0.15

## CGGCAGCAAUAUUACGCCCU
30 °C
  self-splicing fitness (ln): -1.01 ± 0.39
37 °C
  self-splicing fitness (ln): 0.318 ± 0.29

## AUCGAGCAAUAUUACGAGGU
30 °C
  self-splicing fitness (ln): -3.26 ± 0.3
37 °C
  self-splicing fitness (ln): -2.93 ± 0.4

## AUUCAGCAAUAUUACGGUGC
30 °C
  self-splicing fitness (ln): -2.13 ± 0.16
37 °C
  self-splicing fitness (ln): -0.156 ± 0.14

## CAGGAGCAAUAUUACGAUGA
30 °C
  self-splicing fitness (ln): -1.76 ± 0.41

## CGUUAGCAAUAUUACGAGAA
30 °C
  self-splicing fitness (ln): -1.93 ± 0.49
37 °C
  self-splicing fitness (ln): -1.45 ± 0.46

## GUCUAGCAAUAUUACGCGAA
30 °C
  self-splicing fitness (ln): -1.36 ± 0.23
37 °C
  self-splicing fitness (ln): -0.134 ± 0.19

## GGCGAGCAAUAUUACGCAUC
30 °C
  self-splicing fitness (ln): -2.15 ± 0.15
37 °C
  self-splicing fitness (ln): -1.05 ± 0.14

## CGGAAGCAAUAUUACGUCUC
30 °C
  self-splicing fitness (ln): -4.07 ± 0.39
37 °C
  self-splicing fitness (ln): -2.3 ± 0.19

## GCGCAGCAAUAUUACGCGAA
30 °C
  self-splicing fitness (ln): -0.172 ± 0.065
37 °C
  self-splicing fitness (ln): -0.153 ± 0.083

## CUAGAGCAAUAUUACGUAAC
30 °C
  self-splicing fitness (ln): -4.96 ± 0.38
37 °C
  self-splicing fitness (ln): -2.32 ± 0.19

## AGCUAGCAAUAUUACGAAGC
30 °C
  self-splicing fitness (ln): -3.35 ± 0.22
37 °C
  self-splicing fitness (ln): -2.43 ± 0.3

## CAGGAGCAAUAUUACGAGUA
37 °C
  self-splicing fitness (ln): -2.34 ± 0.42

## CAUAAGCAAUAUUACGCAGG
30 °C
  self-splicing fitness (ln): -1.84 ± 0.18
37 °C
  self-splicing fitness (ln): -1.22 ± 0.18

## UAAAAGCAAUAUUACGAAUG
30 °C
  self-splicing fitness (ln): -1.18 ± 0.067
37 °C
  self-splicing fitness (ln): 0.0515 ± 0.081

## UCGAAGCAAUAUUACGUGAC
30 °C
  self-splicing fitness (ln): -2.44 ± 0.19
37 °C
  self-splicing fitness (ln): -2.88 ± 0.21

## GAUCAGCAAUAUUACGACAU
30 °C
  self-splicing fitness (ln): -0.0993 ± 0.012
37 °C
  self-splicing fitness (ln): 0.102 ± 0.032

## GGCAAGCAAUAUUACGACGC
30 °C
  self-splicing fitness (ln): -0.177 ± 0.14
37 °C
  self-splicing fitness (ln): -0.105 ± 0.17

## UCAUAGCAAUAUUACGCGAU
30 °C
  self-splicing fitness (ln): -1.9 ± 0.22

## UGGAAGCAAUAUUACGUCCA
30 °C
  self-splicing fitness (ln): -2.02 ± 0.39

## GUCCAGCAAUAUUACGGAAU
30 °C
  self-splicing fitness (ln): -0.712 ± 0.079
37 °C
  self-splicing fitness (ln): 0.0755 ± 0.094

## UCGGAGCAAUAUUACGGCCA
30 °C
  self-splicing fitness (ln): -3.25 ± 0.44
37 °C
  self-splicing fitness (ln): -1.63 ± 0.35

## GCCCAGCAAUAUUACGUGCU
30 °C
  self-splicing fitness (ln): -3.14 ± 0.16
37 °C
  self-splicing fitness (ln): -2.88 ± 0.21

## CAUCAGCAAUAUUACGAGAU
30 °C
  self-splicing fitness (ln): -3.84 ± 0.18
37 °C
  self-splicing fitness (ln): -3.71 ± 0.21

## UGACAGCAAUAUUACGAGAG
30 °C
  self-splicing fitness (ln): -3.08 ± 0.14
37 °C
  self-splicing fitness (ln): -1.75 ± 0.11

## CCUCAGCAAUAUUACGCGCG
30 °C
  self-splicing fitness (ln): -2.78 ± 0.13
37 °C
  self-splicing fitness (ln): -1.45 ± 0.13

## CUAGAGCAAUAUUACGGAGA
30 °C
  self-splicing fitness (ln): -2.51 ± 0.26
37 °C
  self-splicing fitness (ln): -2.51 ± 0.48

## CGUAAGCAAUAUUACGAUCU
30 °C
  self-splicing fitness (ln): -2.36 ± 0.15
37 °C
  self-splicing fitness (ln): -0.243 ± 0.11

## CACAAGCAAUAUUACGGAUA
30 °C
  self-splicing fitness (ln): -1.79 ± 0.15
37 °C
  self-splicing fitness (ln): -2.4 ± 0.17

## CCGAAGCAAUAUUACGGGCU
30 °C
  self-splicing fitness (ln): -4.21 ± 0.23
37 °C
  self-splicing fitness (ln): -2.36 ± 0.2

— the supplement of paper PMC7877785
